# Measured values reported in paper PMC3538638, “On the Molecular Basis of D-Bifunctional Protein Deficiency Type III” (PLoS ONE, 2013).
# Where a chain is given by its changes, count along the chain named. Names may count otherwise.
# B1: HsDH(R248C), patient variant of the 3R-hydroxyacyl-CoA dehydrogenase fragment of human MFE-2 (domain or fragment)
# chain: MGSPLRFDGRVVLVTGAGAGLGRAYALAFAERGALVVVNDLGGDFKGVGKGSLAADKVVEEIRRRGGKAVANYDSVEEGEKVVKTALDAFGRIDVVVNNAGILRDRSFARISDEDWDIIHRVHLRGSFQVTRAAWEHMKKQKYGRIIMTSSASGIYGNFGQANYSAAKLGLLGLANSLAIEGRKSNIHCNTIAPNAGSRMTQTVMPEDLVEALKPEYVAPLVLWLCHESCEENGGLFEVGAGWIGKLCWERTLGAIVRQKNHPMTPEAVKANWKKICDFENASKPQSIQESTGSIIEVLSKIDS
# notes: Made by site-directed mutagenesis of pLWRP51::HsDH; for the limits see the note of m1; also called R248C variant; source: E. coli BL21(DE3)pLysS, pLWRP51 vector, purified (Ni-NTA, Superdex 200)
# B2: HsDH(E232K), patient variant of the 3R-hydroxyacyl-CoA dehydrogenase fragment of human MFE-2 (domain or fragment)
# chain: B1 chain with E232K, C248R
# notes: Made by site-directed mutagenesis of pLWRP51::HsDH; for the limits see the note of m1; also called E232K variant; source: E. coli BL21(DE3)pLysS, pLWRP51 vector, purified (Ni-NTA, Superdex 200)
# B3: HsDH(N158D), patient variant of the 3R-hydroxyacyl-CoA dehydrogenase fragment of human MFE-2 (domain or fragment)
# chain: B1 chain with N158D, C248R
# notes: Made by site-directed mutagenesis of pLWRP51::HsDH; for the limits see the note of m1; also called N158D variant; source: E. coli BL21(DE3)pLysS, pLWRP51 vector, purified (Ni-NTA, Superdex 200)
# B4: HsDH(W249G), patient variant of the 3R-hydroxyacyl-CoA dehydrogenase fragment of human MFE-2 (domain or fragment)
# chain: B1 chain with C248R, W249G
# notes: Made by site-directed mutagenesis of pLWRP51::HsDH; for the limits see the note of m1; also called W249G variant; source: E. coli BL21(DE3)pLysS, pLWRP51 vector, purified (Ni-NTA, Superdex 200)
# B5: HsDH(T15A), patient variant of the 3R-hydroxyacyl-CoA dehydrogenase fragment of human MFE-2 (domain or fragment)
# chain: B1 chain with T15A, C248R
# notes: Made by site-directed mutagenesis of pLWRP51::HsDH; for the limits see the note of m1; also called T15A variant; source: E. coli BL21(DE3)pLysS, pLWRP51 vector, purified (Ni-NTA, Superdex 200)
# B6: wild type 3R-hydroxyacyl-CoA dehydrogenase (DH) fragment of human MFE-2 (multifunctional enzyme type 2) (domain or fragment)
# chain: B1 chain with C248R
# notes: 3R-hydroxyacyl-CoA dehydrogenase (DH) fragment of human MFE-2 / D-bifunctional protein; also called HsDH; native HsDH; source: E. coli BL21(DE3)pLysS, pLWRP51::HsDH, purified (Ni-NTA, Superdex 200)
# Molecular target: the molecule itself
# Test: SEC; Superdex 200 10/300 GL, 20 mM PIPES/HCl pH 6.8, 150 mM NaCl, 1 mM EDTA, 5% glycerol, 1 mM NaN3, 0.3 ml/min; retention times of wild type and variants compared
row,Protein,binding result
1,B1,binds
2,B2,binds
3,B3,binds
4,B4,binds
5,B5,binds

# Molecular target: the molecule itself
# Test: static light scattering (SLS); purified recombinant protein; SLS as described previously [3]; the methods name it for the native HsDH protein
row,Protein,stoichiometry N
1,B6,2
